{
  "source": "paper doi:10.1101/2025.05.15.654345",
  "data": [
    {"target": "human IFITM3 (untagged; interferon-induced transmembrane protein 3) (UniProt Q01628)", "sequence (Q01628 whole entry)": "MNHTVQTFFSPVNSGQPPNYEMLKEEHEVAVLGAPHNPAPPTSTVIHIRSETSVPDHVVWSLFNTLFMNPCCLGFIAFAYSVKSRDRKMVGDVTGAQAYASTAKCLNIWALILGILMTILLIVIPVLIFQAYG", "test": "co-immunoprecipitation (anti-HA IP, anti-IFITM3 immunoblot, band ratio)", "conditions": "HEK293T co-transfected with pCMV-IFITM3 (0.50 μg) and pBJ-97ZA Nef-HA WT or mutant (0.25 μg); parent: 100", "values": [
      {"substance": "97ZA013 Nef-HA (HIV-1 clade C primary isolate), wild type E153K", "percent of parent (% (IFITM3/HA ratio, WT = 100))": 73},
      {"substance": "97ZA013 Nef-HA (HIV-1 clade C primary isolate), wild type G2A", "percent of parent (% (IFITM3/HA ratio, WT = 100))": 1},
      {"substance": "97ZA013 Nef-HA (HIV-1 clade C primary isolate), wild type L164A; L165A", "percent of parent (% (IFITM3/HA ratio, WT = 100))": 87},
      {"substance": "97ZA013 Nef-HA (HIV-1 clade C primary isolate), wild type M20A", "percent of parent (% (IFITM3/HA ratio, WT = 100))": 124},
      {"substance": "97ZA013 Nef-HA (HIV-1 clade C primary isolate), wild type M169V; Q171L", "percent of parent (% (IFITM3/HA ratio, WT = 100))": 244},
      {"substance": "97ZA013 Nef-HA (HIV-1 clade C primary isolate), wild type N163T; C164S", "percent of parent (% (IFITM3/HA ratio, WT = 100))": 217},
      {"substance": "97ZA013 Nef-HA (HIV-1 clade C primary isolate), wild type R17A; R19A; R21A; R22A", "percent of parent (% (IFITM3/HA ratio, WT = 100))": 16},
      {"substance": "97ZA013 Nef-HA (HIV-1 clade C primary isolate), wild type R192F; R193H", "percent of parent (% (IFITM3/HA ratio, WT = 100))": 188},
      {"substance": "97ZA013 Nef-HA (HIV-1 clade C primary isolate), wild type S152D; E153K", "percent of parent (% (IFITM3/HA ratio, WT = 100))": 42}
    ]}
  ]
}
